Reference: paper PMC12119571, “The Porphyromonas gingivalis RNA-binding protein is required for growth in high levels of zinc and persistence with host cells”

T1: RbpPg1 (Porphyromonas gingivalis W83) (UniProt Q7MWI3)
T1 sequence: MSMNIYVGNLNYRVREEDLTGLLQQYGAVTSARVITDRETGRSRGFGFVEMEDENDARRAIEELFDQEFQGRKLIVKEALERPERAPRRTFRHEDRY

T2: RbpPg1 (Porphyromonas gingivalis W83, UniProt Q7MWI3 1-97)
T2 sequence: T1 sequence


What was measured:
[1] = tested on: RbpPg1 (Halo) (Porphyromonas gingivalis W83); experiment: pull-down of total RNA, RNA-seq; settings: EMSA: LightShift Chemiluminescent RNA EMSA kit, on ice 30 min, TBE 10% gel at 4 C (buffer in Suppl. Tables 3-5, not in the material); His pulldown: 1 h at 4 C …
[2] = molecular target: T1, RbpPg1 (Porphyromonas gingivalis W83); experiment: pull-down of total RNA, RNA-seq; settings: EMSA: LightShift Chemiluminescent RNA EMSA kit, on ice 30 min, TBE 10% gel at 4 C (buffer in Suppl. Tables 3-5, not in the material); His pulldown: 1 h at 4 C …
[3] = molecular target: T2, RbpPg1; experiment: EMSA; shift reduced by unlabeled IRE RNA; EMSA: LightShift Chemiluminescent RNA EMSA kit, on ice 30 min, TBE 10% gel at 4 C (buffer in Suppl. Tables 3-5, not in the material); His pulldown: 1 h at 4 C; settings: protein: recombinant; tags: His-tag (pET30a, NcoI/XhoI); label: 3' biotin; IRE stem loop (hairpin)

| Molecule | binding signal (fold enrichment over HU-beta) [1] | binding signal (fold enrichment over HU-beta) [2] | binding result [3] |
| --- | --- | --- | --- |
| PG2090 zinc efflux transcript | 639 | 71.3 | – |
| UCCUGCUUCAACAGUGCUUGGACGGAAC (structured_RNA) [IRE control RNA (LightShift kit)] | – | – | binds |
